PMC7984725 (Biochemistry, 2018)

Target: human linker histone H1.0 (human, UniProt P07305 1-194)
Assay: ITC

Sequence of human linker histone H1.0 (P07305 whole entry): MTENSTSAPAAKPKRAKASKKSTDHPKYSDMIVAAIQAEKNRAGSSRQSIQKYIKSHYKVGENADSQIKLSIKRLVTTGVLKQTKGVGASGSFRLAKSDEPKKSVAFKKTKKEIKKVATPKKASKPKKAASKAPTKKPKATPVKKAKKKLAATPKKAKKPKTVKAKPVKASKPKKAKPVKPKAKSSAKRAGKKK

B1: prothymosin-α (ProTα) (natural protein, UniProt P06454 1-111, looked up)
chain: MSDAAVDTSSEITTKDLKEKKEVVEEAENGRDAPANGNAENEENGEQEADNEVDEEEEEGGEEEEEEEEGDGEEEDGDEDEEAESATGKRAAEDDEDDDVDTKKQKTDEDD
With B1 the Kd was 460 nM and the “stoichiometry N” value was 1.
